# Assay results: the DeepSol protein solubility set
# Assay: soluble on expression in E. coli; label from the status in PepcDB or PDB records
row,Sequence,soluble on expression in E. coli
1,SDLDLLDLNPRIIAAIKKAKLKSVKEVLHFSGPDLKRLTNLSSPEVWHLLRTASLHLRGSSILTALQLHQQKERFPTQHQRLSLGCPVLDALLRGGLPLDGITELAGRSSAGKTQLALQLCLAVQFPRQHGGLEAGAVYICTEDAFPHKRLQQLMAQQPRLRTDVPGELLQKLRFGSQIFIEHVADVDTLLECVNKKVPVLLSRGMARLVVIDSVAAPFRCEFDSQASAPRARHLQSLGATLRELSSAFQSPVLCINQVTEAMEEQGAAHGPLGFWDERVSPALGITWANQLLVRLLADRLREEEAALGCPARTLRVLSAPHLPPSSCSYTISAEGVRGTPGTQSH,soluble
2,MAISSVGFACRSFSPVRTLQSHCLWKIRFNTVAAAIETMDESDGFATDSDRQDKVSDEPRDREWKQLNSKDLGLSSSMIAKSTRKVLNGLKSKGHDVYLVGGCVRDLILKRTPKDFDILTSAELREVSSFSTSAQNSSRNTRTECKESSGSDGDEDCIRLNNCLQRDFTINGLMFDPYAKVVYDYLGGMEDIRKAKVRTVIHAGTSFHQDCARILRAIRIAARLGFRMSKETAHFIKNLSLLVQRLDKGRILMEMNYMLAYGSAEASLRLLWKFGILEILLPIQAAYLARSGFRRRDKRTNMLLSLFANLDKLLAPDRPCHSSLWIAILAFHKALADKPRSPIVVAAFSLAVHNCGDILEAVEITKKITRPHDKSFFELVEPEENLDFQTLLDEVMDLDASIEDALNQMTDAYFISKAMSAYPQAPYSDLVFIPLQLYLRAGRIFDCVKNEETRIGFEAKQGSKIEYGSLNSGYFPEIRHVFARVVFDTVFPLNLSQEL,soluble
3,MARETHDREDLLLEGVNLPERARLLHRASGREWVIGWRTGGGAAFYDGPDRVYQFNADNQLRRVYLDGSKLAAEGGRLCELRRPEPTNPDGSAGDRTQKVKLVWQPIDSAIQRNVLEQWAETRQQLLTALELFRERDLPNVTIASTAPDGSNSSLSTQPSIYSWESVGIDAFEMLDRTSGWLVSITDNPEIAAQPNA,soluble
4,MENKTLDHTLQGAPLWLTNFVLVYQKLSKENLQLLATIYHENVTFIDPLHTVEGFDDLYQYFENLYQNLSACDFVIEEVIWQDSQASLFWTMTYQHPKLNKGKMVTVVGTSHIKGEGDKVIYHRDFLDLGAMLYEQLPILGKLTKWIKTKAAN,not soluble
5,MSLGKYFGTDGVRGEANVELTPELAFKLGRFGGYVLSQHEPDRPRVFVARDTRISGELLESALVAGLLSVGIEVYKLGVLATPGVSYLVRTEQASAGVMISASHNPALDNGIKFFGGDGFKLADEQEAEIEALLDAKEDDLPRPSAQGLGMVVDYPEGLRKYEKFLVSTGSDLEGMKIAIDAANGAASYSARQVFLDLNADITVIGEEPDGLNINDGVGSTHPEQLQNLVKGSDFVIGLAFDGDSDRLIAVDENGEIVDGDKIMYIIGKYLSEKGRLSKNTIVTTVMSNLGFHKALDRENINKKITAVGDRYVVEEMRRSGYNLGGEQSGHVIIMDYNTTGDGQLTAIQLTKVMKETGKTLSELANEVTIYPQKLVNIYVKNDMKNKAMEVPMIAQIIEKMEAEMAGNGRILVRPSGTEPLLRVMAEAPSTEEVNYYVDTIAKVVKTEIGIEGHHHHHH,soluble
6,MSLSAPYRKQIISNAHNKPSLFSKIKTFFTQKDSARVSPRNNVANKQPRNESFNRRISSMPGGYFHSEISPDSTVNRSVVVSAVGEARNDIENKEEEYDETHETNISNAKLANFFSKKGNEPLSEIEIEGVMSLLQKSSKSMITSEGHHHHHH,soluble
7,MGSDKIHHHHHHMFVNRRAELKILHSAYESLKRGEKVNVAIIGPRRIGKTELLLKFKEEVNGVVPYLNLQRIGSLESFIFAYTRELLYEIAKVVGMSIERSDLLTWDDLLILSAKLDLEREVKAIRDGTLETLFEMQEAILEKTGQKAVFILDEFQEVVNFKGFLETMRAVTEKQRNIAYFISGSAVRMMEEILAPKNPFFGQFKRVYLRGLPKEDTIELAKTTLERAGIEATHSALELIYKLTQGHPFYVLALCRRLIEEGFEKVKSRDVYYAFLTELLSEKGDIYMHLEYLFNESLSRAYKGPIHKQILLILAQEEGLRLSEIARRLNKPSGEVSNYLKFLLRTDLILKQGERYYFTDKLMRFWLAKTYLGITELELRRERFLEELVRELEEKYLKAKKELGIAKEAMIRERMREIFDIDFKPYRRGDVEFDGVAFRDGVYVLEIKWRNRPATYKDVKDFIRKVKGEFGSATMFFFSRSGFTEKAKELCEKEGVKMLTPKDLGIS,not soluble
8,MSLSGCNGVPTSYVSDPVYSQAFVVTSGAPLPMLLMASAIQWNEDYAVTAKHTPFLRNVVHEGLGDVVFFKHKASSVPHWRQYVPGEAVTAVGFNSFMMPMQGKGHALSSLVRLEGTPGSVFYSVHDGPITKGMSGGPVFADDGKVVGINVAIIPTDEINAGKRPDLVGKDRISVFMSFSEIDKEWRRYQYLLAHKAKPKAPAAVKGYVAVAAKEGHHHHHH,soluble
9,MGHHHHHHSHMQTDIHDEPVNLGFGVQFEPDDLYRLRSQFLPLGKIGGKPSWLNPKNLPKSADLLCNVCEKPLCFLMQVSANGGINDPPHAFHRSLFLFVCRNPSCSRTNDAANLKAFRCQLPRANDYYSFDGPMDPDLDGDVADPRAPADGPGLCRICGCSAAKKCAKCQVARYCSQAHQVIDWPAHKLECAKAATDGSITDEPKNPRNAFCFKEFGVEIDQEYMPANLFDGLSDDEGDEEEEEGNDEDETEEEKKARIREFEKFVKENKGKNADMTKEDLDEATAEQPKDIDFDKFNRLVNLQPDQIIRYKRYGQPLRATGLSELPEVVEPCELCGAPRRFEMQLMPHLLSLIDVDAIGQSIDWASVYVYTCSASCQIADDGYAKEFVAKQDFL,soluble
10,ETELAFLYERDIYRLLAECDNSRNPDLGLIVRICLATGARWSEAETLTQSQVMPYKITFTNTKSKKNRTVPISDELFDMLPKKRGRLFNDAYESFENAVLRAEIELPKGQLTHVLRHTFASHFMMNGGNILVLKEILGHSTIEMTMRYAHFAPSHLESAVKFNPLSNPAQ,soluble
11,MKTLEAIKKELGEYEGKNIKIMEVCGTHTSSIFKNGIRSLISPRIQLISGPGCPVCVTASSYIDRLVEYSLKDNHCVLTFGDMMKVKGHKLSLTEAKATGGNVKILYSPLSAVKIAIKSPETQFIFAAVGFETTAPIYALMIEEIIKNNIKNLKLMTSIKTIIPAISYICENEKNIDAFLCPGHVSVIIGSSVYTDMALKYRKPFVIGGFEGGHIIAAIYEIIRQISNNEYSMKNMYQSAVSPEGNQKAKSLIDKYFEAADDYWRGIGIIKNSGLRLRTEYRDFDAGSTIFEDADAAPSGCKCADVILGRITPAQCPLFGKACTPLNAVGACMVSSEGACGIWYRNCEV,soluble
12,MTMPVNTIMGLFAKSPIKPLQRHVVCVNECCSHLINFFEVCNKGDWEKAGEIRAQISHLEKEADVLKREIRLKLPRGLFMPVDRSDMLELLTQQDKLANLAKDIAGRVYGRQLVIPEPLQENFIAYVRRCLDAANQAQNVINELDELLETGFKGREVTLVAEMIHQLDVIEDDTDSMQIRLRQQLMAIESKMNPIDVMFLYKILEWVGGIADQAQRVGARLELMLSRS,not soluble
13,QDSPNAIKAAVISSPMLGFYSGLLPKSIAKILVAIKLKFNNIISNTPWYFLGQKDYSPVNFTDNKLTHSIPRYQYFVDLYKKNKIIQLGGVTTHWLAQSIAAQKELFSKIVQLKTPILLLQASGDTVVCQQAQDDFCQQLHTLQPQSCPNGVPSNIDNAFHELFFETDDLRNKAITQSLAWFEQH,not soluble
14,MPRFSNKTVIITGSSNGIGRTTAILFAQEGANVTITGRSSERLEETRQIILKSGVSEKQVNSVVADVTTEDGQDQIINSTLKQFGKIDVLVNNAGAAIPDAFGTTGTDQGIDIYHKTLKLNLQAVIEMTKKVKPHLVASKGEIVNVSSIVAGPQAQPDFLYYAIAKAALDQYTRSTAIDLAKFGIRVNSVSPGMVETGFTNAMGMPDQASQKFYNFMASHKECIPIGAAGKPEHIANIILFLADRNLSFYILGQSIVADGGTSLVMGTQAHDVMSIMSSH,soluble
15,MDEEKDLAQRKKEAAERAKQLARERLAARQADEQARSAAETGSLKTPPNSNGSQTETTKGEATEPASANDLALAKKRAAEEARAKAAQLRRQGEAAASGAATGDDLEAAKRKAAEEARAKAAQLRRQREAAAPGAATGDDLEAAKRKAAEEARARAAELRRQREAAESGAEDDLELAKKKAVAAAKARAAALAKQKAAEASGDDDELAKQKAAAAAKAKAAAAAKARAAALAKQQGGAGDEGAKQKAAAAARAKAEETDGGTGRSAAPSPNDPLLEKYVRIIHEHLGSDVLEDAYINRLAKDVPTLVVKKEAYYKVAELLKGHEQLRFDYLSELHGTDFQTHMEVYVHLYSYPNRHPVALKVKIERDNPEVDSLVPLWPGANWPECEAYDLLGIRFRGHPNLIRIFLGEQWVGHPLRKDYEPYDAEV,not soluble
16,SQACVMPSLLQNMVGFSEVARATQTDPRPQRPAPPQPQVATMPWSQPGSWARRGFVPAWSQPPALSQQKLARQCCLGPWAGLIPHQQPLPRHPPQASSFPTTAGLWPPAFAQCGTLGHRAIYLVLWPPFLGPWLSSLQEKPHFIPQLPPACTPHPVPWWGLSIPGSKGRRSAPFLPLSLGRLGAQLWKHHPATHLSCGSRFFGGS,soluble
17,MKKRLNIGLVGLGCVGSAVAKILQENQEIIKDRAGVGIGIKKAVVRDVKKHKGYPFEISNDLESLIEDEEIDIVVELMGGVEAPYLLAKKTLAKQKAFVTANKAMLAYHRYELEQTAKNTPIGFEASVCGGIPIIKALKDGLSANHILSFKGILNGTSNYILSQMFKNQASFKDALKDAQHLGYAELNPEFDIKGIDAAHKLLILASLAYGIDAKLEEILIEGIEKIEPDDMEFAKEFGYSIKLLGIAKKHPDCIELRVHPSMIKNECMLSKVDGVMNAISVIGDKVGETLYYGAGAGGEPTASAVISDIIEIARKKSSLMLGFETPQKLPLKPKEEIQCAYYARLLVSDEKGVFSQISAILAQNDISLNNVLQKEILHSNKAKILFSTHTTNEKSMLNALKELENLQSVLDTPKMIRLEN,not soluble
18,MLSEASSVQSPTVSIRRRTCVVCGSSTLNSYVTSFTRVPDKQEQWVTVLANGDAGFEDQLKASLATGRKYICYDHFDRQYFAQRKTDDGFELIRNRNPMAFKNATFIRHVDLRSTSSFVPDDSSEEPIPAKRLKIMSDLKGRGGELDPNSMTFLMKTIFLHVKKTMEEADEARRKHEIKEELD,not soluble
19,MDPMYLLVDVGNTHSVFSITEDGKTFRRWRLSTGVFQTEDELFSHLHPLLGDAMREIKGIGVASVVPTQNTVIERFSQKYFHISPIWVKAKNGCVKWNVKNPSEVGADRVANVVAFVKEYGKNGIIIDMGTATTVDLVVNGSYEGGAILPGFFMMVHSLFRGTAKLPLVEVKPADFVVGKDTEENIRLGVVNGSVYALEGIIGRIKEVYGDLPVVLTGGQSKIVKDMIKHEIFDEDLTIKGVYHFCFGD,soluble
20,MGHHHHHHSHMKPVKHLLTTSNKSANVPALTTKKGLHNLPLSPELKEKHNAKLIHDKIEPMVLRSPPTGESILRYALPIPSSKTKNLLPEDEMIGKIIKHLKMVVSTLEETYGHCDQNGEEPFVKHEHEELSLSVGDDMNSFLTYCSQFAAQLEEALKEEQNILESLFKWFQWQVNQMEEISKDQTLLQAEPPKPDKTVILNIAEIVRLVQRFEELKNRLKQRSKSSVKVMLSKTMDKENRPEAVKSCEALAQKIEEFLEAHSTDEFKDVSATEPQL,soluble
21,MPTLSSNLKHLRLLLGRSQGEFAEQLGIAQSTLSSVERENRPPSTKLINTARFQTGVSAEYFEASIHFYAAPDLLFRSAREGRANADKIAAAFSIAEHYLRERYPDVTSDLPTIPIADLEGELSLRMLEEFASQTRDHFGIDQDSMIPNLTTVLNNHGILVTSLPDYVVEGTNFDGVSTPTDSTLRIIALNQQRSGDRYRFSLAHELAHLILHANTLRSDKSQMEKEANIFAASFLMPRALLTPVITPELTLKDYAELKAQWGYSIQAIVRRAHELELIDYKRYRSLRMQIAGRGWNINEPVDVLLENVYIDPIDLLSNNIKKHQSTNEGLATVTSLHKQ,not soluble
